Assay results as given in the nanobody polyreactivity screen of Harvey et al. (2022).

Assay: yeast display, Sf9 membrane polyspecificity reagent, FACS + sequencing; frameworks hold sequencing errors
Method in brief: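 After 36–48 hours of galactose induction, yeast (Saccharomyces cerevisiae BJ5465) displaying a synthetic nanobody library were stained at 4 °C for 1 hour with 10% biotinylated, detergent-solubilized Sf9 membrane reagent. Streptavidin microbeads enriched the stained cells before FACS sorting into low and high (top ~1%) gates on anti-HA and streptavidin fluorescence. Each clone's polyreactivity label reflects its gate of origin.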

Row | Sequence | polyreactivity (PSR sort gate)
1 | QVQLVESGGGLVQAGGSLRLSCAASGSIFYENMGWYRQAPGKERELVASISWSGTSTYADSVKGRFTISRDNAKNTVYLQMNSLKPEDTAVYYCAAGKNGYTYSRSYSYGYWGQGTQVTVSS | high polyreactivity
2 | QVQLVESGGGLVQAGGSLRLRCAASGSTIVQYDMGWYRQAPGKERELVAAISRTGSTYYADSVKGRFTISRDNAKNTVYLQINSLKPEDTAVYYCNAEFWRGTYRFGYWGQGTQVTVSS | low polyreactivity
3 | QVQLVESGGGLVQAGGSLRLSCAASGSIFDGNAMGWYRQAPGKERELVASISDSGGSTYYADSVKGRFTISRDNAKNTVYLQMNSLKPEDTAVYYCAKVFVRFYDYYINYWGQGTQVTVSS | low polyreactivity
4 | QVQLVESGGGLVQAGGSLRLSCAASGSTFLYNALGWYRPAPGKEREFVAAISGSGGTTYYADSVKGRFTISRDNAKNTVYLQMNSLKPEDTAVYYCAVSQSWYWYYASDYWGQGTQVTVSS | low polyreactivity
5 | QEQLQESGGGQVQDGGSLRMSCAASGSISYASGLCWYSQEQGKEREFVASIDPGAITNYADSVKGRFTISHDNAKNTVYLQMNRLKPEDTAVYYCAADGHGGYGYWGQGTQVTVSS | high polyreactivity
6 | QVQLVESGGGLVQAGGSLRLSCAASGITFQWYAMGWYRQAPGKERELVAGISSGGSTYYADSVKGRFTISRDNAKNTVYLQMNSLKPEDTAVYYCAADYGWYSPFYPSYKYEYWGQGTQVTVSS | low polyreactivity
7 | QVQLVESGGGLVQAGGSLRLSCAASGGTFGYYAMGWYRQAPGKDRELVAGINYSGGRTYYADSVKGRFTISRDNAKNTVYLQMNSLKPEDTAVYYCAAQAYVGYRGYDYWGQGTQVTVSS | high polyreactivity
8 | QVQLVETVGGLVQAGGSLRLSCAASGSIFTHYAMGWYREAPGKERELVAAITWSGGSTYYADSVKGRFTISRDNAKNTVYLQMNSLIPEDTAVYYCNVAWVGVSLVYGPFEYDYWGQGTQVTVSS | high polyreactivity
9 | QVQLVESGGGLVQAGGSLRLSCAASGRIFSSYAMGWYRQAPGKERELVAAISSRGGSTYYADSVKGRFTISRDNAKNTVYLQMNSLKPEDTAVYYCARVKYSGVVYKYDYWGQGTQVTVSS | high polyreactivity
10 | QVQLVESGGGLVQAGGSLRLSCAASGITFWQNTMGWYRQAPGKERELVAAISWTGGRTYYADSVKGRFTISRDNAKNTVYLQMNSLKPEDTAVYYCNTGHEEDEDDYWGQGTQVTVSS | low polyreactivity
11 | QVQLVESGGGLVQAGGSLRLSCAASGYTFSYYTMGRYLQAPGKERELVAVITSAGGTYFADSVKGRFTISRDNAKNTVYLQMNSLKPEDTAVYYCAAERWADYVWIFIDDYDYLGQGTQVTVSS | low polyreactivity
12 | QVQLVESGGGLLQAGGSLRLSCADSGSTFLYKAMGCYIQAPGKEREFVAAISGSGGTTYYADSVKGRFTISRDNAKNTVYLQMNSLKPEDTAVYYCAVSQSWYWYYASDYWGQGTQVTVSS | low polyreactivity
13 | QVQLVESGGGLVQAGGTLRLSCAASGIIFYYYAMGWYRQAPGKERELVAAITGTGSRTYYADSVKGRFTISRDNAKNTVYLQMNSLKPEDTADYYCNARSFATGSKVPARGYWGQGTQVTVSS | high polyreactivity
14 | QVQLVESGGGLVQAGGSLRLSCAASGLTFKRNAMGWYRPAPGKERELVAAIRYSTDSTNCADSVKGRFTISRDNAKNTVYLQMNSLKPEDTAVYYCAKDKQDYEYWGQGTQVTVSS | low polyreactivity
15 | QVQLVESGGGLVQAGGSLRLSCAASGYIFSYYAMGWYRQAPGKERELVAAINRSGGRTYYADSVKGRFTISRDNAKNTVYLQMNSLKPEDTAVYYCAADQLSDEYDYWGQGTQVTVSS | high polyreactivity
16 | QVQLVESGGGLVQAGGSLRLTCAASGRIFYDKSMGWYRQSPGKERELVAAIRRSGGDTYYADSVKGRFTISRDIAKNTVYLQMNSLKTVDTAVYYCADTYSDYGRRYGYWGQGTLVTVSS | high polyreactivity
17 | QVQLVESGGGLVQAGGSLRLSCAASGSTFGVNAMGWYRQAPGKERELVAAIRSAVPTYYADSVKGRFTISRDNAMNTVYLQMNSLKPEETAVYYCAARHRESQRRYDYWGQGTQVTVSS | high polyreactivity
18 | QVQLVESGGGLVQAGGSLRLSCAASGRTFARYALGWYRQAPGKERELVAAISWSGGSTYYADSVKGRFTISRDNAKNTVYLQMNSLKPEDTAVDYCAAGYGARSAKFDVYGTNEGDYWGQGTQVTVSS | high polyreactivity
19 | QVQLVESAGGLVQAGGSLRLSCDASGYTFNYNTMGCYRQARGKERELVSAINTSGSTDYADSVKGRFTISRDNAKNTDYLLMNRLKPEDTAVYYCAVRVAYKYNYWGQGTQETVSS | high polyreactivity
20 | QVQLVESGGGLVQAGGSLRLSCAASGRIFPHYAMGWYRQAPGKERELVAAISRSGVSTYYADSVKGRFTISRDNAKNTVYLQMNSLKPEDTAVYYCNIVRYSFLYSVTYNYWGQGTQVTVSS | high polyreactivity
21 | QVQLVESGGGLVQAGGSLRLSCAASGIIFGGYAMGWYRQAPGKERELVAAITRSGGSTYYADSVKGRFTISRDNAKNTVYLQMNSLKPEDTAVYYCAAVPYRKHSYPFRLNYWGQGTQVTVSS | high polyreactivity
22 | QVQLVESGGGLVQAGGSLRLSCAASGSTFGYYAMGWYIQAPGKERELVAAISWPGGSTYYADSVKGRFTISRDNAKNTVYLQMNSLKPEYTAVYYCAADTPYWQSSKYDYWGQGTQVSVSS | high polyreactivity

Row | Sequence | polyreactivity (PSR sort gate)
23 | QVQLVESGGGLVQAGGSLRLSCAASGFTFYRYAMGWYRQAPGKERELVAAFSGSGGSTYYADSVKGRFTISRDNAKNTVYLQMNSLKPEDTAVYYCNTVWFYGAKYDYWGQGTQVTVSS | high polyreactivity
24 | QVQLVESGGGIVQAGGSLRLCCAASGRSFSHYAMGWSRQAPGKDRELVATITRNGGITYYADSVKWRFTISRDNAKNTVYLQMNSLKPEDTAVYYCAAGRYYNLRATHGYWGQATQVTVSS | low polyreactivity
25 | QVQILETGGGLVQAGGSLSLSCAASGSIFYSNAMGWYRQAPGKESEIVAAISAGGGSTYYADSVKGRFTISRDNAINTVYLQMNSLKPEDTAVYYCAAQPYKIIYPYDYWGQGTQVTVSS | low polyreactivity
26 | QVHLVESGGGLDQAGGSLRLSCAASGRTFKRYAMGWYRQAPGKETELVAAISWSGTSTYYADSVKGRFTISRDNAKNTVYLQMNSLKPEDTALYFCNTPHRSSSVRSYGYWGQGTQVTVSS | high polyreactivity
27 | QVQLVESGGGLVQAGGSLRLSCAASGSTLSVNAMGWYRPAPGKERELVAAIDFDGGDTYYADSVKGRFTISRDNAKNNVYLQMNSLKPEDTAVYYCAADIGGQYDYLADDYWGQGTQVTVSS | low polyreactivity
28 | QVQLVESGGGLVQAGGSLRLSCAASGFTFHYNAMGWYRQAPGKEREFVAAISGSGDRTYYADSVKGRFTISRDNAKNTVYLQMNSLKPEDTAVYYCATSVRQNYFYSYDYWGQGTQVTVSS | high polyreactivity
29 | QVQLVESGGGLVQAGGSLRLSCAASGSIFYYAMGWYRQAPGKERELVAAITWRGGRTYYADSVKGRFTISRDNAKNTVYLQMNSLKPEDTAVYYCNAVAPGKYNHWGQGTQVTVSS | high polyreactivity
30 | QVQLVESGGGLVQARGSLRLSCAATGFTIWQNAMGWYRQPQGKERELVAGIRLSGGSTYADSVKGRFTIARDNAKNTVYLQMNSLKPEDTAVYYCAARIAGNYRYRSLRYDYWGQGTQVTVSS | high polyreactivity
31 | QVQLVESGGGLVQAGGSLRLSCAASGSIFTHYAMGWYRQAPGKERELVAAITWSGGSTYYADSVKGRFTISRDNAKYTVYLQMNSLKPEDTAVYYCNVAWVGVSLVYGPFEYDYWGQGTQVTVSS | high polyreactivity
32 | QVQLVESGGGLVQAGGSLRLSCAASGRIFGPYAMGWYRQAPGKERELVAASSTDYADSVKGRFTISRDNAKNTVYLQMNSLKPEDTAVYYCAKVGFGIPGGFYYWGQGTQVTVSS | low polyreactivity
33 | QVQLVESGGGLVQAAGSLLLSCAPSGFIFYYNAMGWYRQAPGKETELVATIRGSGGSTYYADSVKGRFTISRDYAKNTVYLQMNSLKPEDTAVYYCAASVQYRRLKKFYYWGQGTQVTVSS | high polyreactivity
34 | QVQLVETGGGLVQAGGSLRLSCAASGRIFSVYAMGWYRQAPGKERDLVAGITSSGGSTYYADSVKGRFTISRDNAKNTVYLQMISLKPEDTAGYYCATRQVSRLYPYRYNYWGQGTQVTVSS | high polyreactivity
35 | QVQLVESGGCLVQAGGSLRLSCCASARTFWYYTMGWYRQAPGKERELVASISRVTSTYYADSVKGRLTSSRDNAKNTVYLQMNSLKPEDTAVYYCAGLQIRRSYWRTFYWGQGTQVTVSS | low polyreactivity
36 | QVQLVESGGGIVQAGVILRLSCAATGITFWNNAMRWYRQARGKERELVATISSNGGRTYYADSVKGRFTISRDNAKNTVYLQMNSLKPEDTAVYYCKARQVLYGLYLRAYPYEYWGQGTQVTVSS | low polyreactivity
37 | QVQLVESGAGLLHAGRSLRLSCPASGRIFRGNAMGCYRQAPGKERELVASISTSGVRTFYADSVKGRFTISRDNAKNTFYLQMNSLKHEDTAVYYCNKRDRYRLYGYNYCGQGTQVTVSS | high polyreactivity
38 | QVQLVESGGGLVQAGGSLRLSCAASGRIFGYYAMGWYRQAPGKERELVAAISSSDGSTYYADSVKGRFTISRDNAKNTVYLQMNSLKPEDTAVYYCAASYYNWDVYQLSYRYDYWGQGTQVTVSS | low polyreactivity
39 | QVQLVESGGGIVQAGGSLRLSCAASGMGWYRQAPGKERELVADITSRGGSTYYADSVKGRFTISRDNAKITVYLQMNSLKPEDTAVSYCAARKRVVQFDYWGQGTQVTVSS | low polyreactivity
40 | QVQLVESGGGLVQAGGSLRLSCAASGRTLVKNAMGWYRQAPGKERELVAAISTSGGRTYYADSVKGRFTISRDNAKNTVYLQMNSLKPEDTAVYYCAAVLYATRPVYGFDSWGQGTQVTVSS | high polyreactivity
41 | QVQLQVSGGGLVQAGGSLRLSCAASGSIFLTSEMGWYRQAPGKERELVAAIATGTSTNYADSVKGRFTISRDNAKNTVYLQMNSLKPEDTAVYYCATYHYWGQGTQVTVSS | low polyreactivity
42 | QVQLVESGGGLVQAGGSLRLSCAASGFTFGTYAMGWYRQAPGKERELVAAINGNGGSTYYADSVKGRFTISRDNAKNTVYLQMNSLKPEDTAVYYCAAARRSGSTRRDYWGQGTQVTVSS | high polyreactivity
43 | QVHLVESVGGLVQAGGSLRLSCAASGRTFRRYAMVWYRQAPGKERELVATITSADSTNYADSVKGRFTISRDNAKNTVYLQMNSLKPEDTAVYYCAKRWGRYAMYYWGQGTQVTVSS | high polyreactivity
